In US20120095193A1 (published 2012):

T1: human ADAMTS5 (human, UniProt Q9UNA0 262-622, limits assumed)
T1 construct: Octet and ELISA used 'recombinant human ADAMTS5'; also called recombinant human ADAMTS5; ADAMTS5 (R&D Systems 2198-AD)
T1 sequence: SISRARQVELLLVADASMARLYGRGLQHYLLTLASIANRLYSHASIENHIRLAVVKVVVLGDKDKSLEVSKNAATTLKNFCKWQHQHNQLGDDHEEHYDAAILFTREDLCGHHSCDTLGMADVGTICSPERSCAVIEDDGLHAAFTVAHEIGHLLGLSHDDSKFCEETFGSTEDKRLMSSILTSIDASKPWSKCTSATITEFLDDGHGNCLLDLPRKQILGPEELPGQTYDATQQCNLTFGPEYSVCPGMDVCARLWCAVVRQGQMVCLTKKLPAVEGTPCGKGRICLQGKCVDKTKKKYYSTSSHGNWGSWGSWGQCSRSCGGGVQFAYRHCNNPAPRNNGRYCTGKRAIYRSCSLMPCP

T2: Human ADAMTS1 (human, UniProt Q9UHI8 253-967, limits assumed)
T2 sequence (looked up): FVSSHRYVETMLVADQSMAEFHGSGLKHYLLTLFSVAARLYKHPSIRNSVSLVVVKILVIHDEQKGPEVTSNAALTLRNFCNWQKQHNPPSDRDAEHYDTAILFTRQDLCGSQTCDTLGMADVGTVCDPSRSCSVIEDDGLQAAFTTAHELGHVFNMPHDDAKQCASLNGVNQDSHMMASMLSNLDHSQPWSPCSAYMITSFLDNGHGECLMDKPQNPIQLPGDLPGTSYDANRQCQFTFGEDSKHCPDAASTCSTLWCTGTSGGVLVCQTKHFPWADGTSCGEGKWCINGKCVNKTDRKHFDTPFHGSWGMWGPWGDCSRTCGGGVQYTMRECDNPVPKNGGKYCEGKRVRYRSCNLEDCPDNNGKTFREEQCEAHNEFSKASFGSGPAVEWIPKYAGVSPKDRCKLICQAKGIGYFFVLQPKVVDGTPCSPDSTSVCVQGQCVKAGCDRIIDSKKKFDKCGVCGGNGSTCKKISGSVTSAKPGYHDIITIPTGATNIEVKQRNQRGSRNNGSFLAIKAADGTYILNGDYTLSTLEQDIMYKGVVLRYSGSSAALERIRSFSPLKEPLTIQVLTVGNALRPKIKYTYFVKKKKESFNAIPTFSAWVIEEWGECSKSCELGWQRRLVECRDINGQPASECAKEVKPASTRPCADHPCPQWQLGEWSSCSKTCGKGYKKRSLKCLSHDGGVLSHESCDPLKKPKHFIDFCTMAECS

T3: Human ADAMTS4 (human, UniProt O75173 213-685, limits assumed)
T3 construct: also called aggrecanase-1
T3 sequence: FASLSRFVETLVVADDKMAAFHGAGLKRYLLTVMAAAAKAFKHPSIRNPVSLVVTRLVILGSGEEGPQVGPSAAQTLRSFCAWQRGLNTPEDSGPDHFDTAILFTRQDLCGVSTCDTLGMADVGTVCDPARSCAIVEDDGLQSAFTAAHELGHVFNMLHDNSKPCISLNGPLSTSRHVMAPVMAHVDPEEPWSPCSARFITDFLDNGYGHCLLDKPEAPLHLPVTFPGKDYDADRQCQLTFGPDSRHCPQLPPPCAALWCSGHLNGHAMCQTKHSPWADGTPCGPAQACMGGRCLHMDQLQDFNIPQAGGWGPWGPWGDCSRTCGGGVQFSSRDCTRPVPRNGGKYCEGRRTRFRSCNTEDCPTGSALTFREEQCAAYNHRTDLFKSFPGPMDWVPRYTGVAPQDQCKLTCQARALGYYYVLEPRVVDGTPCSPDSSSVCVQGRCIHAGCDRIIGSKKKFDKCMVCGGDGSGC

T4: Human ADAMTS13 (human, UniProt Q76LX8 75-685, limits assumed)
T4 sequence (looked up): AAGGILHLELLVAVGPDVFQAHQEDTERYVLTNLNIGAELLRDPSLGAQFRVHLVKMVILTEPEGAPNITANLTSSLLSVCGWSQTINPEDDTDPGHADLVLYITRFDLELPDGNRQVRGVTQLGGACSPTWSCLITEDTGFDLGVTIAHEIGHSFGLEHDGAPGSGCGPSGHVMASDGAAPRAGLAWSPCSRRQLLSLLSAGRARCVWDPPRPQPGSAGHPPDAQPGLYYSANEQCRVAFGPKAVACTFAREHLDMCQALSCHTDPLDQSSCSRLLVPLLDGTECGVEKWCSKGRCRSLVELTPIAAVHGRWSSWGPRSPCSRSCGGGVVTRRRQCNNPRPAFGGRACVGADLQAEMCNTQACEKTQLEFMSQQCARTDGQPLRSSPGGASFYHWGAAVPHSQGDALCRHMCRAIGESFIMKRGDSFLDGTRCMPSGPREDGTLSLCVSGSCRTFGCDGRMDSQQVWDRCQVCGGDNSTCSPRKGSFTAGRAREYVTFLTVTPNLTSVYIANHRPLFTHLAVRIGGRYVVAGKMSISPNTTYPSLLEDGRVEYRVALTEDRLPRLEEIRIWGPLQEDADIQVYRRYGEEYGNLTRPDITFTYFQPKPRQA

T5: Human MMP1 (human, UniProt P03956 20-469, limits assumed)
T5 sequence (looked up): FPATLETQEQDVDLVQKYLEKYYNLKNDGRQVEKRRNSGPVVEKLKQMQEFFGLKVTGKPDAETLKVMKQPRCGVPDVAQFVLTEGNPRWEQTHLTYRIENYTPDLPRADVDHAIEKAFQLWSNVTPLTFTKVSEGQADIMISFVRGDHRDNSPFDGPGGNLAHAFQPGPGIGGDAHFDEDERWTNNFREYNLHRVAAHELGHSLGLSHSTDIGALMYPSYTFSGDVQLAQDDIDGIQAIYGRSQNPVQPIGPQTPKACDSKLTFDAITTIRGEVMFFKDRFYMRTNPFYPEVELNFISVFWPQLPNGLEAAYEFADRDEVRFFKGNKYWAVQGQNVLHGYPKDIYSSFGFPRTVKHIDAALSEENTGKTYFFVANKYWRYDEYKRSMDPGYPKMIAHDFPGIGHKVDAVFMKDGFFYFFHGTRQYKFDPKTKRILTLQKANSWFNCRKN

B1: BPC1655 (antibody, human IgG1, kappa, V domains shown)
VH: EVQLLESGGGLVQPGGSLRLSCAASGFTFSDAWMDWVRQAPGKGLEWVSEIRHKANDHAIFYDESVKGRFTISRDNSKNTLYLQMNSLRAEDTAVYYCAKPFAYWGQGTLVTVSS
VL: DIQMTQSPSSLSASVGDRVTITCKASQSVGTTIVWYQQKPGKAPKLLIYSASNRHTGVPSRFSGSGSGTDFTLTISSLQPEDFATYYCQQYTSYPFTFGQGTKLEIKR
notes: Humanized, human gamma 1 / kappa; also called 12F4 H0L0
B2: BPC1659 (antibody, human IgG1, kappa)
heavy: not shown
light: DIQMTQSPSSLSASVGDRVTITCKASQSVGTTIVWYQQKPGKAPKLLIYSASNRHTGVPSRFSGSGSGTDFTLTISSLQPEDFATYYCQQYTSYPFTFGQGTKLEIKRTVAAPSVFIFPPSDEQLKSGTASVVCLLNNFYPREAKVQWKVDNALQSGNSQESVTEQDSKDSTYSLSSTLTLSKADYEKHKVYACEVTHQGLSSPVTKSFNRGEC
notes: Humanized, human gamma 1 wild type / kappa, with a fully functional Fc; also called 12F4 H4L0; 12F4 H4L0 IgG1 wt
B3: BPC1661 (antibody, human IgG1, kappa)
heavy: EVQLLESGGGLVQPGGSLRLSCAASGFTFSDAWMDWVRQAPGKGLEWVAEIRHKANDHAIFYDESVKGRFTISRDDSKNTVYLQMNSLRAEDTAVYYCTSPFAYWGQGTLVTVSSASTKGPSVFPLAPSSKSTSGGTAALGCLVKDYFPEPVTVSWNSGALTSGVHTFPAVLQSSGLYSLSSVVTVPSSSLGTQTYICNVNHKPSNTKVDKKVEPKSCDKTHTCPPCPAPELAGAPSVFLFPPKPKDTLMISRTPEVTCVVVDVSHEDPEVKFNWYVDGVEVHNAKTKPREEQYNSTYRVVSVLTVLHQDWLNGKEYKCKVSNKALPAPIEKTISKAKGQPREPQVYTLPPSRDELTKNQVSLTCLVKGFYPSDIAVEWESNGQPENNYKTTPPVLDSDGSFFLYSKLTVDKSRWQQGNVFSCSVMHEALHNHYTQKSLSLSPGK
light: B2 light
notes: HEK- and CHO-expressed material was tested; also called 12F4 H4L0 IgG1m(AA); Fc disabled anti-ADAMTS5 antibody
B4: 12F4.1H7 (antibody, IgG2, V domains shown)
VH: EVKLEESGGGLVQPGGSMKLSCTASGFTFSDAWMDWVRQSPEKGLEWVAEIRHKANDHAIFYDESVKGRFTISRDDSKNIVYLQMNSLRPEDTGIYYCTSPFAYWGQGTLVTVSA
VL: DIVMTQSQKFMSVTVGDRVSITCKASQSVGTTIVWYQQKPGQSPKLLIYSASNRHTGVPDRFTGSGSGTDFILTINNVQSEDLADYFCQQYTSYPFTFGSGTKLEIKR
notes: also called Murine 12F4.1H7
B5: 7B4.1E11 (antibody, IgG1, V domains shown)
VH: EVKLEESGGGLVQPGGSMKLSCAASGFTSSDAWMDWVRQSPEKGLEWVAEIRNKANNHARHYAESVKGRFTISRDDSKSSVYLQMNSLRAEDSGIYYCTRTYYYGSSYGYCDVWGTGTTVTVSS
VL: DIQMTQSPASLSASVGETVTITCRTSENIYSYLAWYQQKQGKSPQLLVYNAKTLAEGVPSRFSGSGSGTQFSLKINSLQPEDFGSYSCQHHYGTPWTFGGGTKLEIKR
notes: also called Murine 7B4.1E11

Legend:
[1] = target: T1, human ADAMTS5; experiment: ELISA on coated recombinant human ADAMTS5 (0.2 ug/ml), antibody in culture supernatant, anti human kappa peroxidase, OD 490 nm
Procedure: A binding ELISA was carried out to test the binding of the expressed antibodies in cell culture supernatant to recombinant ADAMTS5. ELISA plates were coated with recombinant human ADAMTS5 at 0.2 μg/ml and blocked with blocking solution (4% BSA in Tris buffered saline). Various dilutions of the tissue culture supernatants were added and the plate was incubated for 1 hour at room temperature before washing in TBST. Binding was detected by the addition of a peroxidase labelled anti human kappa light chain antibody (Sigma A7164) at a dilution of 1/1000 in blocking solution. The plate was incubated for 1 hour at room temp before washing in TBST. The plate was developed by addition of OPD substrate (Sigma P9187) and colour development stopped by addition of 2M H₂SO₄. Absorbance was measured at 490 nm with a plate reader and the mean absorbance plotted against concentration.

[2] = target: T1, human ADAMTS5; experiment: Biacore, mAb down, no avidity
[3] = target: T1, human ADAMTS5; experiment: Octet QK, antigen down, incl avidity
[4] = target: T1, human ADAMTS5; experiment: Biacore, mAb down, no avidity; Biacore, mAb down, no avidity
[5] = target: T1, human ADAMTS5; experiment: Biacore, mAb from culture supernatant captured on anti-human IgG, ADAMTS5 (R&D 2198-AD) at 64 nM, 1:1 fit
[6] = target: T1, human ADAMTS5; experiment: Biacore T100, CHO-expressed mAb captured on Protein A, ADAMTS5 (R&D 2198-AD) 0.0625-64 nM, 1:1 fit
Procedure: (§1) Protein A was immobilized on a CM5 biosensor chip by primary amine coupling. This surface was used to capture the Fc disabled anti-ADAMTS5 antibody, 12F4 H4L0 IgG1m(AA) (BPC1661), (CHO and HEK expressed material). Recombinant human ADAMTS5 (R&D Systems 2198-AD) was used as the analyte at 64 nM, 16 nM, 4 nM, 1 nM, 0.25 nM and 0.0625 nM, with a buffer injection (i.e. 0 nM) used to double reference the binding curves. Regeneration of the capture surface (i.e. removal of the captured antibody) was with 50 mM NaOH. The running buffer was HBS-EP and the run was carried out on the Biacore T100 at 25° C. The data was fitted to the 1:1 model inherent to the machines analysis software.

[7] = target: T1, human ADAMTS5; experiment: Biacore T100, HEK-expressed mAb captured on Protein A, ADAMTS5 (R&D 2198-AD) 0.0625-64 nM, 1:1 fit
Procedure: as §1

[8] = target: T1, human ADAMTS5; experiment: cell-based or functional assay
[9] = target: T1, human ADAMTS5; experiment: Octet QK, purified mAb
[10] = target: T1, human ADAMTS5; experiment: Octet QK, purified murine mAb
[11] = target: Human MMP3 (human, UniProt P08254 18-477, limits assumed); experiment: celTRF and Octet QK cross-reactivity
Chain of Human MMP3 (P08254 18-477 limits assumed): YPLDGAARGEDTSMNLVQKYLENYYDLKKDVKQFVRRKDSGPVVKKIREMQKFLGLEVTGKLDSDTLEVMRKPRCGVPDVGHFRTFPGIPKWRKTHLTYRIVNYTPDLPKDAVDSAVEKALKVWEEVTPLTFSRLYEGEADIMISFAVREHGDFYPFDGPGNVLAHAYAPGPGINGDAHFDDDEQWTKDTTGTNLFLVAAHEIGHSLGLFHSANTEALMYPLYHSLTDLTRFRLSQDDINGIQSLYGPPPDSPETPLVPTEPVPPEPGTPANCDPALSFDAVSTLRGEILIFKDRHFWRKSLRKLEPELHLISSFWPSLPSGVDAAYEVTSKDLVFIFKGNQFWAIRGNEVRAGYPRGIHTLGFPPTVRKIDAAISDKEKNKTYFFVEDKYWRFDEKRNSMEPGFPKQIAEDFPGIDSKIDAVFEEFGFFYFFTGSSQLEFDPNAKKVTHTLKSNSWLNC

[12] = target: Human MMP9 (human, UniProt P14780 20-707, limits assumed); experiment: celTRF and Octet QK cross-reactivity
Chain of Human MMP9 (P14780 20-707 limits assumed): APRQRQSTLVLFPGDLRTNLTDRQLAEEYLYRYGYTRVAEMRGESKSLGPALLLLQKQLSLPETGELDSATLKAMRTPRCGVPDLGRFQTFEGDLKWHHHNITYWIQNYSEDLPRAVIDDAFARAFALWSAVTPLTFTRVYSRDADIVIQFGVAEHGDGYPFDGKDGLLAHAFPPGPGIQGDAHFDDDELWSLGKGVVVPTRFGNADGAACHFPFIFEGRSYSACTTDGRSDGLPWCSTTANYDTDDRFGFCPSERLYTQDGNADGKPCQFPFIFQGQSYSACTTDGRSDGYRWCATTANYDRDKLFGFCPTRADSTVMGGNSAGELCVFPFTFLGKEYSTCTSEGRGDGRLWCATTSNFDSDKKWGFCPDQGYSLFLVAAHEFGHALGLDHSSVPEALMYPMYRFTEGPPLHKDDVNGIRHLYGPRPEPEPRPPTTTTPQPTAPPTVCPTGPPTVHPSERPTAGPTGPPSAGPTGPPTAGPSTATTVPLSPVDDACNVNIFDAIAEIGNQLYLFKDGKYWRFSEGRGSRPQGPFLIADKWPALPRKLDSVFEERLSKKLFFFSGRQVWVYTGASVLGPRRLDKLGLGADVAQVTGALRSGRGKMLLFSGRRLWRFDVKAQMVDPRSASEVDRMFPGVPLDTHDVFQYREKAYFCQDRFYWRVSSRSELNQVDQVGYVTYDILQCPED

[13] = target: Human MMP13 (human, UniProt P45452 20-471, limits assumed); experiment: celTRF and Octet QK cross-reactivity
[14] = target: T2, Human ADAMTS1; experiment: celTRF and Octet QK cross-reactivity
[15] = target: T3, Human ADAMTS4; experiment: celTRF and Octet QK cross-reactivity
[16] = target: T4, Human ADAMTS13; experiment: celTRF and Octet QK cross-reactivity
[17] = target: T5, Human MMP1; experiment: celTRF and Octet QK cross-reactivity

Binder | Kd [2] | Kd [3] | Aggrecan Substrate Cleavage Neutralization IC50 [8] | Kd [9] | Kd [10] | binding result [11] | binding result [12] | binding result [13] | binding result [14] | binding result [15] | binding result [16] | binding result [17] | also measured
B1 |  |  |  |  |  |  |  |  |  |  |  |  | binding result [1]: no binding (tested: about 2.5 ug/ml)
B2 | 0.085 nM | 0.0383 nM |  |  |  |  |  |  |  |  |  |  | kon [4]: 489000 M⁻¹ s⁻¹; Kd [5]: 0.0848 nM; koff [5]: 4.15e-05 s⁻¹; kon [5]: 489000 M⁻¹ s⁻¹
B3 |  |  |  |  |  |  |  |  |  |  |  |  | Kd [6]: 0.07 nM; Kd [7]: 0.074 nM
B4 | 0.067 nM | 0.0356 nM | 0.06 nM | 0.0685 nM | 0.436 nM | no binding | no binding | no binding | no binding | no binding | no binding | no binding | 
B5 | 0.483 nM | 0.28 nM | 0.08 nM | 0.358 nM | 0.899 nM | no binding | no binding | no binding | no binding | no binding | no binding | no binding | 
